Test: yeast display, Sf9 membrane polyspecificity reagent, FACS + sequencing; frameworks hold sequencing errors
Method in brief: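 In a synthetic yeast display library (Saccharomyces cerevisiae BJ5465), nanobody expression was induced with galactose for 36–48 hours. FACS gates were set low and high (top ~1%) using anti-HA fluorescence for expression and streptavidin fluorescence for binding of the Sf9 membrane reagent. Each polyreactivity label is drawn from the gate of origin.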
With “QVQLVESGGGLVQAGGSLRISCAASGLTFTDYAIGWYRQAPGKERELVAGIWDGGSTYYADSVKGRFTISRDNAKNTVYLQMNSLKAEDTAVYSCAVRTSRLLREFGYSYWGQGTQVTVSS” the “polyreactivity (PSR sort gate)” value was “high polyreactivity”.
For “HVQLVESGGGLVQAGGSLRLSCAASGRTFNVNAMGWYRQAPGKERELVAAIDFSDGRTYYADSVKGRFTISRDNAKNTVYLQMNSLKPEDTAVYYCARSFRVGNTWYDYWGQGTQVTVSS”, the “polyreactivity (PSR sort gate)” value was “high polyreactivity”.
With “QVQLVESRGALVQAGGSLRLSCAASGSTIDAYAMGWYRQAPGKERELVAAITRSGGRTYYADSVKGRFTISRDYAKNTVFLQMNSLKPVDTAVFYCNAYCVYVRGEFWGQGTQVTVSS” the “polyreactivity (PSR sort gate)” value was “high polyreactivity”.
In the case of “QVQLVESGGGLVQAGGSLRLSCAASGFIFGGYTMGWYRQAPGKERELVAAISKTGGSTYYADSVKGRFTISRDNAKNTVYLQMNSLKPEDTAVYYCAVARSAYYRGNHWGQGTQVTVSS”, the “polyreactivity (PSR sort gate)” value is reported as “high polyreactivity”.
For “QVQLVESGGGLVQAGGSLRLSCAASGVILSAYAMGLYRQAPAKERELVAAITGSGGRTYYADSVKGRFTISRDNAKNTVYFQMNSLKPEDTAVNYCAARYTYVGSYTYNSWGQGPQVTVSS”, the “polyreactivity (PSR sort gate)” value was “high polyreactivity”.
With “QVKLVESGGGLVQAGGSLRLSCAASGSTFGINARGWYRQAPGKERELVAAITFISGSTNYADSVKGRFTISRDNAKNTVYLQMNSLKPEDTAVYYCAARCTSTPVYSRYGYWGQGTQVTVSS” the “polyreactivity (PSR sort gate)” value was “low polyreactivity”.
In the case of “QVQLVESGGGLVQAGGSLRLSCAASGSIFGRNAMGWYRQAPGKERELGAAMTGSGTSTYADSVKGRFTISRDNAKNTVYLQMNSLKPEDTAVYYCAAGVTTVEYEYCGQGTQVTVSS”, the “polyreactivity (PSR sort gate)” value is reported as “low polyreactivity”.
For “QVQLVESGGGLVQAGGSLRLSCAASGGTFPLYAMGWYRQAPGKERELVAAIRWSGGRTYYADSVKGRFTISRDNAKNTVYLQMNSLKPEDTAVYYCAADYDDGWGYDYWGQGTQVTVSS”, the “polyreactivity (PSR sort gate)” value was “high polyreactivity”.
For “QVQLVESGGGLVQAGGSLRLSCAASGSILSSYAMGWYRQAPGKERELVAAISWRGGPTYYADSVKGRFTISRDNAKNTVYLQMNSLKPEDTAVYHCAAEFYDHPWLYDYWGQGTQVTVSS”, the “polyreactivity (PSR sort gate)” value was “low polyreactivity”.
With “QVQLVESGGRLVQAGGSLRLSGAASGIIFRTNAMGWSRQAPGKEREFVAAISAGGTRTYYADSVKGRFTISRDYAKNTVYLQMNSLKPEDTAVYFCAAASGYDYWGQGTQVTVSS” the “polyreactivity (PSR sort gate)” value was “high polyreactivity”.
With “QDQLVESGGGLVQAGGSLRLICAASGRILTSYAMGWYRQAPGKERELVAAISGSSASTYYADSVKGRFTISRDNAKNTVYLQMNSLKPEDTAVYYCAAYKYDYRVDTGYDYWGQGTQVTVSS” the “polyreactivity (PSR sort gate)” value was “low polyreactivity”.
In the case of “QVQLVESGGGLVQAGGSLRLSCAASGLTFRFYAMGWYRQAPGKERELVAVISGRGTSTYYADSVKGRFTISRDNAKNTVYLLMNSLKPEDTAVYYCAARYVAYAYVGNDYWGQGTQLTVSS”, the “polyreactivity (PSR sort gate)” value is reported as “high polyreactivity”.
In the case of “QVQLVESGGGLVQAGGSLRLSCAASGSIFTPNAMGWYRQAPGKERELVAAISSSSDRTYYADSVKGRFTISRDNAKNTVYLQLNSLKPEDTAVYYCAAYAQKRYYWGQGTQVTVSS”, the “polyreactivity (PSR sort gate)” value is reported as “high polyreactivity”.
With “QVQLVESGGGLVQAGGSLRLSCAASGLTFHRYAMGWYRQAPGKERELVAAINYSGGRTYYADSVKGRFTISRDNAKNTVYLQMNSLKPEHTAVYYCAAPRASGYYWGQGTQVTVSS” the “polyreactivity (PSR sort gate)” value was “high polyreactivity”.
With “QVQLVESGGGLVQAGGSLRLSCAASGSIFYWYAMGWYRQAPGKERELVAAISRNGGNTYYADSVKGRFTISRDNAKNTVYLQMNSLKPEDTAVYYCAAQLFVRRWMDYWGQGTQVTVSS” the “polyreactivity (PSR sort gate)” value was “low polyreactivity”.
For “QVQLVESGGGLVQAGGSLRLSCAASGRTFAYYAMGWYRQAPGKERELVAAIDLSDGTTFYADSVKGRFTISRDNAKNTVYLQMNSLKPEDTSVYYCAAELFNVSYGSDFDYWGQGTQVTVSS”, the “polyreactivity (PSR sort gate)” value was “low polyreactivity”.
For “QVQLVESGGGLVQAGGSLRLSCAASGIIFDDNAMGWYRQAPGKERELVAAISSGSTTNYADSVKGRFTISRDNEKNTVYLQMTSLKPEDTAVYYCAAVDGLAFDYWGQGTQVTVSS”, the “polyreactivity (PSR sort gate)” value was “low polyreactivity”.
In the case of “QVQLVESGGGLVQAGGSLRLSCAASGFIFAYYAMGWYRQAPGKERELVAAISYNGGTTYYADSVKGRFTISRDNAKNTVYLQMNSLKPEDSAVYYCNALVHQTYYDYDYWGQGTQVTVSS”, the “polyreactivity (PSR sort gate)” value is reported as “high polyreactivity”.
In the case of “QVQLVESGGGLVQAGGSLRLSCAASGRIIKYYTMGWYRQAPGKERELVAAISRGGTTNYADSVKGRFTISRDNAKNTVYLQMNSLKPEDTAVYYCNAVGFYAANTFDYWGQGTQVTVSS”, the “polyreactivity (PSR sort gate)” value is reported as “high polyreactivity”.
For “QVQLVESGGGLVQAGGSLRLSCAASGSTIPSYAMGWYRQATGKERELVASITYSDGTTRYADSVKGRFTISRDYAKNTVYFQMYSLKPEDTAVYYCNAVYYREGMDYWGQGTQVSVSS”, the “polyreactivity (PSR sort gate)” value was “low polyreactivity”.
In the case of “QVQLVESGGGLVQAGGSLRLSCAASGFIFWKYAMGWYRQAPGKEREFVAAINWRGDRTYYADSVKGRFTISRDNAKNTVYLQMNSLKPEDTAVYYCAAVVGYYHRRFDYWGQGTQVTVSS”, the “polyreactivity (PSR sort gate)” value is reported as “high polyreactivity”.
In the case of “QVQLVESGGGLVQAGGSLRLSCAASGRIFGDNGMGWYRQAPGKERELVTYADSVKGRFTISRDNAKNTVYLQMNSLKAEDTAVYESNKDPPGFSGLDEIYWGQGTQVTVSS”, the “polyreactivity (PSR sort gate)” value is reported as “low polyreactivity”.
With “QFQLVDSGGGLVQAGGSLRLSCAASGRTFFFYAMGWYRQAPGKERELVASITWSGGTRTYYADSVKGRFTISRDNAKNTVYLQMNSLKREDTAVYYCADTYSSYWFNRYGGKYYYWGQGTQVTVSS” the “polyreactivity (PSR sort gate)” value was “high polyreactivity”.
For “QVQIVESGGGLVQAGCSLRLSCAASGFIFRRNAMGWYRQAPGKERELVATIRASGGRTYYADSEKGRFTISRDNAKNTVYLQMNSMKPEDTAVYYCAADTYRDVRDPYYYWGQGTQVTVSS”, the “polyreactivity (PSR sort gate)” value was “high polyreactivity”.
With “QVQLVESGGGLVQAGGSLRLSCAASGRILRFYAMGWYRQAPGKERELVATISRSGGSTYYADSVKGRFTISRDNAKNTVYLQMNSLKPEDTAVYYCNAFLYARQRDRWARYDYWGQGTQVTVSS” the “polyreactivity (PSR sort gate)” value was “high polyreactivity”.
With “QVQLQESGGGMVQAGVSLRLSCAASGTISNAPHMGWYRQAPAKERELVAGITIGGTTYYADSVKGRFTISRDNAKNTVYLQMNSLSPGVTAVYDCAAHSEQYTPFYYWGQGTQVTVSS” the “polyreactivity (PSR sort gate)” value was “low polyreactivity”.
In the case of “QVQLVESGGGLVQAGGSLRLSCAASGGIFPLYTMGWYRQATGKERELVASNTGSRASTYYADSVKGRFTISRDKAKNTVYLPMNSLNPEDTGVYDCKADVYVYSVTSHYPSYRLDYWGQGTQVTVAS”, the “polyreactivity (PSR sort gate)” value is reported as “high polyreactivity”.
With “QVQLVESGGGLVQAGGSLRLSCAASGRTCKYYAMGWYRPAPGKEREEVAAINSGGITYYADSVKGRFTISRDNAKNTVYLQMNSLKPEDTAVYYCAKVWKIGVLRYPSYGYSYWGQGTQVTVSS” the “polyreactivity (PSR sort gate)” value was “high polyreactivity”.
For “QVQLVESGLGLVQAGGSLRLSCAASGSTFYLYTMGWYRQAPGKERELVAAITYSGGRTYYADSVKGRFTISRDNAKNTVYLQMNSLKPEDTAVYYCAARRLPRPWTSTSDYWGQGTQVTVSS”, the “polyreactivity (PSR sort gate)” value was “high polyreactivity”.
With “QVQLVESGGGLVQAGGSLRLSCAASGRTFSYYAMGWYRKAPGKERELVASISGGGRTNYADSVKGRFTISRDNAKNTVYLQMNSLKPEDTAVYYCAARYLITRQYKRGYWGQGTQVTVSS” the “polyreactivity (PSR sort gate)” value was “high polyreactivity”.
For “QVQLVESGGGLVQAGGSLRLSCAASGNIFPRNAMGWYRQAPGKERELVAAISASGDNTYYADSVKGRFTISRDNAKNTVYLQMNSLKPEDTAVYYCAAGTFYESIQPYESVAYDYWGQGTQVTVSS”, the “polyreactivity (PSR sort gate)” value was “low polyreactivity”.
In the case of “QVKLVESGGGIVKAGCSLRLSCGASGLTYNTYDMGWYRQAPGKERELVADISRGRGSTYYADSVKGRFTISRDNAKNTVYLQMHSLKPEDTAFYYCNAEKRSSYLMYDYWGQGTQVTVSS”, the “polyreactivity (PSR sort gate)” value is reported as “high polyreactivity”.
With “QVQLVESGGVLVQAGGSLRLSCAASGSIFDWYVMGWYRQAPGKERELVAAITSTGSTYYADSVKGRFTISLDNAKNTVYLQMNSLKPEDTAVYYCATSFYVYPSYYIMDYWGQGTQVTVSS” the “polyreactivity (PSR sort gate)” value was “low polyreactivity”.
For “QVQLVESGGGLVQAGGSLRLSCAASGSTFNRYAMGWYRQAPGKERELVASISCSGGASTYYADSVKGRFTISRDNAKNTVYLQMNSLKPEDTAVYYCAVSRDSYGGKGSVLYDYWGQGTQVTVSS”, the “polyreactivity (PSR sort gate)” value was “low polyreactivity”.
In the case of “QVQLVESGGGLVQAGGSLRLSCAASGRTFQFYVMGWYRQAPGKERELVASIRSGGSTNYADSVKGRFTISRDNAKNTVYLQMNSLKPEDTAVYYFAARVASPYYRYDFWGQGTQVTVSS”, the “polyreactivity (PSR sort gate)” value is reported as “low polyreactivity”.
With “QVQLQESGGGLVQAGGSLRLICAASGTISTDSYMGWYRQAPGKERKFVATIGYGGITYYADSVNGRSTISRDSAKNTVYLQMNSLKPDDTAVYYCEVNSYYPYHYWYWGRGTQVTVSS” the “polyreactivity (PSR sort gate)” value was “high polyreactivity”.
For “QVQLVETGGGLVQAGGSLRLSCAASGTIFKKYAMGWYRQAPGKERELVAAITRGTYYADSVKGRFTISRDNAKNTVYLQMNSLIPEDTAVYYFNREYWGRGYYRVRGEYDYWGQGTQVTVSS”, the “polyreactivity (PSR sort gate)” value was “low polyreactivity”.
In the case of “QVQLVESGGGLVQAGGSLRLSCAASGRTFHDYAMGWYRQAPGKERELVAAISISGVSTYYADSVKGRFTSSRDNAKNTVYLQMNSLKPVDTAVYYCAAAQDAAVYWRPGGYDYWGQGTQVTVSS”, the “polyreactivity (PSR sort gate)” value is reported as “low polyreactivity”.
With “QVQLVESGGGLVQAGGSLRLSCAASGSIFSSNAMVWYRPAPGKERELVAAIDYSGGRTYYADSVKGRFTISRDNPKNTVYLQMNSLKPEDTAVYYCAKLIPVHSRYDYWGQGTQVTVSS” the “polyreactivity (PSR sort gate)” value was “low polyreactivity”.
For “QVQLVESGGGIVQAGGSLLLSCAASGSTIIRYVKGWYRQAPGTERELVAGINSSAGSTNYADSVKGRFTISRDNAKNTVYLQMISLKPEDTAVYYCNADLRSEYDYWGQGTQVTVSS”, the “polyreactivity (PSR sort gate)” value was “low polyreactivity”.
For “QVQLVESGGGLVQAGGSLRLSCAASGSIFTSNAMGWYRQAPGKERELVAAISYISGGTYYADSVKGRFTISRDNAKNTVYLQMNSLKPEDTAVYYCAAEQKWGSGQYDQGSYWYYYWGQGTQVTVSS”, the “polyreactivity (PSR sort gate)” value was “low polyreactivity”.
For “QVQLEESGGGLVQAGGRLRLRCAASATYRYYGMGWYRQQPGNERELVAAISRSGSRTYYADSVKGRFTISRDNAKNTVYLQMNSLKPEESAFYYCAASSVYYGYDYWGQGTQVTVSS”, the “polyreactivity (PSR sort gate)” value was “high polyreactivity”.
For “QVQLVESGGGLVQAGGSLRLSCAASGRIFDSYTMGWYRQEPGKERELVAAISGGGITNYADSVKGRFTISRDNAKNTVYLQMNSLKPEDTAVYYCAARDRYYFGGMYYWGQGTQVTVSS”, the “polyreactivity (PSR sort gate)” value was “low polyreactivity”.

Reference: the nanobody polyreactivity screen of Harvey et al. (2022)
